Legend:
p75^NTR = biological target: T1, p75^NTR (Homo sapiens, UniProt P08138); test: Fluorescence-labeled TUF1 peptide binding to COS7 cells expressing p75NTR; details: labeled peptide 5 nM, 90 min, COS7 cells transfected with pCMV-SPORT6-p75
T1 construct: host or cells: COS7
T1 sequence (P08138 29-427): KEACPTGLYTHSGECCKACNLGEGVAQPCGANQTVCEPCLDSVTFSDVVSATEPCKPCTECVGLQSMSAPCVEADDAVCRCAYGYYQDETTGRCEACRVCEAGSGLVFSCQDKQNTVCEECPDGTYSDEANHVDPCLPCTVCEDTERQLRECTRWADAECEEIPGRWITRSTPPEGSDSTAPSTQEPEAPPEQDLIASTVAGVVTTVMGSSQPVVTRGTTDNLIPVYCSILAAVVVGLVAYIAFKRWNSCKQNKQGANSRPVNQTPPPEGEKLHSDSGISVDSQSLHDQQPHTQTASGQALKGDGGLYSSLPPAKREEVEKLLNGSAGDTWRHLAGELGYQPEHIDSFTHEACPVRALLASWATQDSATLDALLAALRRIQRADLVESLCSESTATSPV
Experimental: COS7 cells were seeded at 10,000 cells/well onto a 18 mm coverslip in a 12-well plate. Cells were allowed to settle overnight in a cell culture incubator (NuAire NU-8600, NuAire, Inc., Plymouth, Minn.) set at 37° C. and 5% CO2. Cells were transfected with pCMV-eGFP (Clontech Laboratories, Inc., Mountain View, Calif.) or pCMV-SPORT6-p75 (ATCC) using Fugene HD (Roche Diagnostics Corp., Indianapolis, Ind.) and were incubated overnight. The binding assays were carried out according to Horton et al. with modifications. Synthetic TUF1 peptides (TUF1[43-54] (SEQ ID NO:1) and TUF1[24-40] (SEQ ID NO:3) were generated (via Sigma Genosys, Sigma-Aldrich Co. St. Louis, Mo.) and were conjugated per manufacturer's recommendation with DyLight 549 NHS Ester (Thermo Fisher Scientific, Waltham, Mass.), which have similar spectra to Cy3 dye. Unconjugated dye was removed with a dye removal column (Thermo Fisher Scientific, Waltham, Mass.). Labeled peptides were diluted to 5 nM in 0.15 M Sucrose/PBS and added (1.0 ml/well) to transfected COS7 cells. The binding reaction was incubated in the dark at room temperature for 90 minutes. Cells were rinsed thoroughly with PBS+0.05% Tween-20 to remove unbound peptide. Cells were then fixed with 4% Paraformaldehyde (5 minutes).
Following fixation, cells were permeabilized in PBS+0.1% Tween-20 for 10 minutes, rinsed thoroughly with PBS, and blocked in BSA (10 mg/ml) for 10 minutes. Cells were incubated with rabbit anti-p75^NTR antibody (1:10,000 dilution) for 30 minutes. Excess antibody was removed with PBS washes. Cells were then incubated with Alexa-488 goat anti-rabbit antibody (1:500 dilution, Invitrogen). Cells were again rinsed thoroughly with PBS and mounted in Vectashield mounting media plus DAPI (Vector Laboratories, Inc., Burlingame, Calif.).
COS7 cells were seeded at 10,000 cells/well onto an 18 mm coverslip in a 12-well plate. Cells were allowed to settle overnight in a cell culture incubator (NuAire NU-8600, NuAire, Inc., Plymouth, Minn.) set at 37° C. and 5% CO2. Cells were transfected with pCMV-eGFP (Clontech Laboratories, Inc., Burlingame, Calif.) or pCMV-SPORT6-p75 (ATCC) using Fugene HD (Roche Diagnostics Corp., Indianapolis, Ind.) and were incubated overnight. The binding assays were carried out according to Horton et al. with modifications. Synthetic TUF1 peptides (TUF1[43-54] (SEQ ID NO:1) and TUF1[24-40] (SEQ ID NO:3)) were generated (via Sigma Genosys, Sigma-Aldrich, St. Louis, Mo.) and were conjugated per manufacturer's recommendation with DyLight 549 NHS Ester (Thermo Fisher Scientific Inc., Waltham, Mass.), which have similar spectra to Cy3 dye. Unconjugated dye was removed with a dye removal column (Thermo Fisher Scientific Inc., Waltham, Mass.). Labeled peptides were diluted to 5 nM in 0.15M Sucrose/PBS and added (1.0 ml/well) to transfected COS7 cells. The binding reaction was incubated in the dark at room temperature for 90 min. Cells were rinsed thoroughly with PBS+0.05% Tween-20 to remove unbound peptide. Cells were then fixed with 4% Paraformaldehyde (5 minutes).
Following fixation, cells were permeabilized in PBS+0.1% Tween-20 for 10 minutes, rinsed thoroughly with PBS, and blocked in BSA (10 mg/ml) for 10 minutes. Cells were incubated with rabbit anti-p75^NTR antibody (1:10,000 dilution) for 30 minutes. Excess antibody was removed with PBS washes. Cells were then incubated with Alexa-488-goat anti-rabbit antibody (1:500 dilution, Invitrogen Corp., Carlsbad, Calif.). […]

[1] = system: TUF1 expression in adrenal glomerulosa cell dispersion; test: Angiotensin II stimulation of adrenal glomerulosa cell dispersion (qPCR); type: cell-based, rat; details: overnight incubation, 5-500 ng/mL
Experimental: Adrenal glands were dissected from adult Sprague-Dawley rats (280 g-300 g) and kept in cold PBS. Following fat removal, adrenal capsules were detached and placed into a few drops of dispersion media (DMEM, 1.0 g/L glucose, 0.32% collagenase (type I, GIBCO, Life Technologies Corp., Carlsbad, Calif.), 4% BSA (Sigma-Aldrich Co., St. Louis, Mo.), 0.1% DNAse (Sigma-Aldrich Co., St. Louis, Mo.). Adrenal capsules were then minced with surgical scissors, transferred to dispersion media and incubated for 90 minutes in a 37° C. and 10% CO2 cell culture incubator with trituration at 15 minute intervals. Dispersed cells were filtered through a 100 μm wire mesh into wash media (DMEM, 0.4% BSA, 0.28% HEPES) and centrifuged at 200×g for 5 minutes. Following supernatant removal, cells were rinsed in wash media and resuspended in incubation media (wash media+7.65 mM CaCl2). Dissociated cells were seeded at 75,000 cells/well in a 24-well plate and incubated at 37° C. and 10% CO2 prior to stimulation. […]
Following overnight incubation, total RNA was isolated from capsular/glomerulosa cells using an RNA-isolation kit (Zymo Research Corp., Orange, Calif.) and concentrations were measured by absorbance at 260 nm ([…]) using a NanoDrop ND-1000 (NanoDrop Technologies, Inc., Wilmington, Del.). […]

| Substance | binding to p75^NTR (p75^NTR) | binding to p75^NTR (p75^NTR; listed as TUF1^24-40) | TUF1 expression [1] |
| --- | --- | --- | --- |
| TUF1[24-40]: synthetic TUF1 peptide, SEQ ID NO:3, without similarity to neurotrophic factors (NGF and BDNF) (GTIKLTPRLSKDAYSEM; Artifical sequence; TUF1 polypeptide) | did not bind cells expressing p75^NTR | did not bind the p75^NTR |  |
| Angiotensin II (DRVYIHPF; Angiotensin-2; UniProt P01019 25-32, looked up) [angiotensin II (Sigma-Aldrich) used to stimulate adrenal glomerulosa cells] |  |  | activates TUF1 expression |

From patent US20120269815A1, “NEUROTROPHINS AND USES THEREOF” (Regents of the University of Minnesota, priority 2008, published 2012)
